Drawing on patent publication US20060062783A1, this text covers OD for 1 molecule.

This test deals with T1, Rat PTH (1-84) (rat).
T1 sequence (peptide): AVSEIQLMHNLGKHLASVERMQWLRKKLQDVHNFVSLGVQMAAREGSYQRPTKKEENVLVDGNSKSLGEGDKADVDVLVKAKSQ
The experiment in a line: ELISA on coated peptide; B cell supernatant. A general note: In an ELISA, binding on a coated surface is turned into a signal by an enzyme label.

B1: anti-PTH mAb 168 (antibody, human IgG2, V domains shown)
VH: EVQLVQSGAEVKKPGESLKISCKGSRYIFTNYWIGWVRQMPGKGLEWMGIIYPGDSDTRYSPSFQGQVTISADMSISTAYLQWSSLKASDTAMYYCARQGDYVWGSFDSWGQGTLVTVSS
VL: DIVMTQTPLSLSVTPGQPASISCKSSQSLLDSDGKTYLYWYLQKPGQPPQLLIYEVSNRFSGVPDRFSGSGSGTDFTLKISRVEAEDVGVYYCMQSIQLWTFGQGTKVEIK
Molecule B1 yielded an OD of 0.19 OD450.
